T1: Heat shock transcription factor 1 (Hsf1), wildtype (human), Q00613
T1 chain: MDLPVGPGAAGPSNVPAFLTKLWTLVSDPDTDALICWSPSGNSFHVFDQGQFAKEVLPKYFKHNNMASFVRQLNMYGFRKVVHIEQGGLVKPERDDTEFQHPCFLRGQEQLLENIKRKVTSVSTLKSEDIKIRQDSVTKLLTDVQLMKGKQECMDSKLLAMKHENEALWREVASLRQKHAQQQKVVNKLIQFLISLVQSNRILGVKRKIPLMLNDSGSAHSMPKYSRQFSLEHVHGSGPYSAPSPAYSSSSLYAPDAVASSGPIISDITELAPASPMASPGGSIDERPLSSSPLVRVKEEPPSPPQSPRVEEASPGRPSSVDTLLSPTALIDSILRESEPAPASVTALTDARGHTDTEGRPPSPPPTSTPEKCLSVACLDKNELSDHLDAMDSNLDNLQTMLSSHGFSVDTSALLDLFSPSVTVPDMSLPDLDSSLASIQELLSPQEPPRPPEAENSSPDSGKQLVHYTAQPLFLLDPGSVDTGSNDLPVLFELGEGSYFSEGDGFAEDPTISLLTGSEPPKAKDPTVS

B1: Heat shock transcription factor 1 (Hsf1), wildtype, Q00613 1-529 (natural protein)
chain: MDLPVGPGAAGPSNVPAFLTKLWTLVSDPDTDALICWSPSGNSFHVFDQGQFAKEVLPKYFKHNNMASFVRQLNMYGFRKVVHIEQGGLVKPERDDTEFQHPCFLRGQEQLLENIKRKVTSVSTLKSEDIKIRQDSVTKLLTDVQLMKGKQECMDSKLLAMKHENEALWREVASLRQKHAQQQKVVNKLIQFLISLVQSNRILGVKRKIPLMLNDSGSAHSMPKYSRQFSLEHVHGSGPYSAPSPAYSSSSLYAPDAVASSGPIISDITELAPASPMASPGGSIDERPLSSSPLVRVKEEPPSPPQSPRVEEASPGRPSSVDTLLSPTALIDSILRESEPAPASVTALTDARGHTDTEGRPPSPPPTSTPEKCLSVACLDKNELSDHLDAMDSNLDNLQTMLSSHGFSVDTSALLDLFSPSVTVPDMSLPDLDSSLASIQELLSPQEPPRPPEAENSSPDSGKQLVHYTAQPLFLLDPGSVDTGSNDLPVLFELGEGSYFSEGDGFAEDPTISLLTGSEPPKAKDPTVS
B2: Hsf1–K298R,S303E,S307E (natural protein, human, UniProt Q00613 1-529, looked up)
chain: MDLPVGPGAAGPSNVPAFLTKLWTLVSDPDTDALICWSPSGNSFHVFDQGQFAKEVLPKYFKHNNMASFVRQLNMYGFRKVVHIEQGGLVKPERDDTEFQHPCFLRGQEQLLENIKRKVTSVSTLKSEDIKIRQDSVTKLLTDVQLMKGKQECMDSKLLAMKHENEALWREVASLRQKHAQQQKVVNKLIQFLISLVQSNRILGVKRKIPLMLNDSGSAHSMPKYSRQFSLEHVHGSGPYSAPSPAYSSSSLYAPDAVASSGPIISDITELAPASPMASPGGSIDERPLSSSPLVRVREEPPEPPQEPRVEEASPGRPSSVDTLLSPTALIDSILRESEPAPASVTALTDARGHTDTEGRPPSPPPTSTPEKCLSVACLDKNELSDHLDAMDSNLDNLQTMLSSHGFSVDTSALLDLFSPSVTVPDMSLPDLDSSLASIQELLSPQEPPRPPEAENSSPDSGKQLVHYTAQPLFLLDPGSVDTGSNDLPVLFELGEGSYFSEGDGFAEDPTISLLTGSEPPKAKDPTVS
notes: Heat shock transcription factor 1 (Hsf1), human, full length, K298R in the S303E,S307E variant; also called REE; EE,K298R; source: E. coli BL21(DE3) Rosetta, purified (Ni-IDA, tag cleaved with tobacco etch virus protease, SEC)
B3: Hsf1–S303E,S307E (double phosphomimetic variant) (natural protein, human, UniProt Q00613 1-529, looked up)
chain: MDLPVGPGAAGPSNVPAFLTKLWTLVSDPDTDALICWSPSGNSFHVFDQGQFAKEVLPKYFKHNNMASFVRQLNMYGFRKVVHIEQGGLVKPERDDTEFQHPCFLRGQEQLLENIKRKVTSVSTLKSEDIKIRQDSVTKLLTDVQLMKGKQECMDSKLLAMKHENEALWREVASLRQKHAQQQKVVNKLIQFLISLVQSNRILGVKRKIPLMLNDSGSAHSMPKYSRQFSLEHVHGSGPYSAPSPAYSSSSLYAPDAVASSGPIISDITELAPASPMASPGGSIDERPLSSSPLVRVKEEPPEPPQEPRVEEASPGRPSSVDTLLSPTALIDSILRESEPAPASVTALTDARGHTDTEGRPPSPPPTSTPEKCLSVACLDKNELSDHLDAMDSNLDNLQTMLSSHGFSVDTSALLDLFSPSVTVPDMSLPDLDSSLASIQELLSPQEPPRPPEAENSSPDSGKQLVHYTAQPLFLLDPGSVDTGSNDLPVLFELGEGSYFSEGDGFAEDPTISLLTGSEPPKAKDPTVS
notes: Heat shock transcription factor 1 (Hsf1), human, full length, phosphomimetic S303E,S307E; theoretical mass 57,270.43 Da; also called EE; source: E. coli BL21(DE3) Rosetta, purified (Ni-IDA, tag cleaved with tobacco etch virus protease, SEC; monomeric and trimeric fractions)

Tests used:
[1] = target: T1, Heat shock transcription factor 1 …; test: native gel or EMSA; Blue native PAGE (8% gel, on ice) of monomeric Hsf1 and of Hsf1 monomers heat shocked at 42 °C for 10 min; samples taken at 0 and 3 h of incubation at 25 °C (Figure S1); settings: remark: other sources report otherwise
[2] = target: the molecule itself; test: as above

| Binder | stoichiometry N [1] | stoichiometry N [2] |
| --- | --- | --- |
| B1 | 3 |  |
| B2 |  | 3 |
| B3 |  | 3 |
